The test system of assay [1] is HMG1 stimulated cytokine gene expression in mouse macrophages. The experiment in a line: Taqman analysis of mouse macrophages (mMØ) stimulated with HMG1. Format: cell-based. The note with it: rHMG1. On the procedure: Taqman Analysis of Mouse Macrophages (mMØ) Stimulated with HMG1: Mouse bone marrow was harvested by rinsing the femurs of normal C57BL/6 mice. The isolated bone marrow cells were then cultured in Dulbecco's modified Eagle's medium (DMEM) supplemented with 10% fetal bovine serum (FBS) and 50 ng/ml M-CSF for 24 h, nonadherent cells were collected and grown for 6 days in complete DMEM supplemented with 10% FBS and 50 ng/ml M-CSF in T-75 flasks (1×10^7 cells/15 ml/flask). On day 6, adherent cells were harvested and reseeded with 5 ng/ml MCSF in α-MEM containing 10% FBS in 96-well plates (1×10^5 cells/200 μl/well) overnight.
The culture medium was replaced with α-MEM and incubated for 2 hours before stimulation to starve cells. HMGB1 (recombinant CBP-HMGB1 fusion protein generated from E. coli at 10 μg/ml), mouse-RAGE-Fc or human-RAGE-Fc fusion protein were pre-mixed with various blocking reagents at 100 μg/ml in α-MEM for 20 min at RT, then 100 μl of the mixtures was added to the cells and incubated at 37° C. for 2 hours. The supernatant was then removed, and the RNA was extracted using Ambion's MagMAX™-96 Total RNA Isolation Kit. All of the recovered RNA were used in a reverse transcriptase (RT) reaction with SuperScript™ III and oligo(dT) primer (Invitrogen) for synthesis of cDNA. 1 μl or 2 μl of the resulting cDNA was used for real time quantitative PCR analysis (TaqMan) using ABI Prism 7700 or 7000.
(In qPCR the cycle at which signal appears reflects the starting amount.)

For another assay, the system named is mouse macrophages. The experiment in a line: TNF-a induction in mouse macrophages. Format: cell-based. The protocol: TNF-a Induction: To examine mRNA levels macrophages were derived from mouse bone marrow using M-CSF. Macrophages were then stimulated by LPS, E. coli produced recombinant HMGB1 or HMGB1 purified from bovine thymus for indicated length of time and mRNA is measured by Taqman. To examine protein levels thioglycant activated mouse peritoneal macrophages were stimulated with 10 μg/mL of HMGB1 purified from bovine thymus or recombinant HMGB1 generated from E. coli for 24 hr. Cytokines in the supernatant were measured by ELISA.

The test system of assay [2] is CpG2216+thymus HMG1 induced IFN-a release (TLR9 signaling). The experiment in a line: Inhibition of HMG1 mediated enhancement of TLR9 signaling, CpG2216 + thymus HMG1 in bone marrow cells. In kind it is cell-based. The settings on record: mouse bone marrow cells. On the procedure: HMGB1+TLR Ligand: Freshly isolated bone marrow cells were stimulated with TLR ligands (TLR3:PolyIC@5 μg/mL; TLR4:LPS@2.5 ng/mL; TLR5:flagellin@0.25 μg/mL; TLR7:polyU@4 μg/mL or R837@5 μg/mL; TLR9:CpG2216@1 μM) with or without presence of thymus HMGB1 (10 μg/mL) for 24 hr. Cytokines in the supernatant were measured by ELISA.
Inhibition of HMG1 Mediated Enhancement of TLR Signaling: Freshly isolated bone marrow cells were stimulated with TLR9 ligand CpG2216 (0.3 μM) and thymus HMGB1 (10 μg/mL) in the presence of different concentration of the anti-HMGB1 mAb E11 or control human IgG for 24 hr and IFN-a in the supernatant was measured by ELISA. CpG2216, HMGB1 and nonstimulatory DNA were used alone or in combination as controls for the assay.

Assay [3] concerns the target T1, interaction of CpG and HMGB1 (Bos taurus, UniProt P10103).
T1 construct: from tissue; host or cells: bovine thymus
T1 sequence (P10103 2-215 limits assumed): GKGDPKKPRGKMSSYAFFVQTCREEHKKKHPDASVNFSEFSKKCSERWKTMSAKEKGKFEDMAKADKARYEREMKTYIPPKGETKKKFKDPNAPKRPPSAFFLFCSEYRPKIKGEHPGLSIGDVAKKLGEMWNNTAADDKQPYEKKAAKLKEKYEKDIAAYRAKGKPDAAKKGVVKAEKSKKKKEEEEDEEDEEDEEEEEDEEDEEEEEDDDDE
The experiment in a line: CpG ELISA, HMGB1 binding to CpG. On the procedure:
CpG ELISA: Proteins or peptides were diluted in PBS to the concentration of 5 μg/ml and coated onto plates at 4° C. o/n. Plates were blocked with 4% dry milk in PBS. Biotin labeled CpG-A alone or in complex with HMGB1 were incubated in the plates at 37° C. for 1 hr. and detected with HRP labeled strep-avidin.

A further assay deals with AM14 B cells. The experiment in a line: AM14 proliferation assay. In kind it is cell-based, mouse. The note with it: for inhibition of DNA immune complex (PL2-3) dependent proliferation of AM14 B cells: thymidine incorporation. The protocol: AM14 proliferation assay: Purified AM14 B cells were preincubated with RAGE-Fc or control human IgG1 for 30 min at 37° C., and stimulated with 0.1 μg/ml of PL2-3 for 24 h at 37° C. Cells were then pulsed with [^3H]thymidine for 6 h.
Background: Uptake of a labelled nucleoside into DNA is a usual measure of proliferation.

Read-outs that look alike come from different tables or passages of the source.

B1: mouse RAGE-Fc fusion protein: mouse RAGE-Fc fusion protein (protein)
chain: QNITARIGEPLVLSCKGAPKKPPQQLEWKLNTGRTEAWKVLSPQGGPWDSVARILPNGSLLLPATGIVDEGTFRCRATNRRGKEVKSNYRVRVYQIPGKPEIVDPASELTASVPNKVGTCVSEGSYPAGTLSWHLDGKLLIPDGKETLVKEETRRHPETGLFTLRSELTVIPTQGGTHPTFSCSFSLGLPRRRPLNTAPIQLRVREPGPPEGIQLLVEPEGGIVAPGGTVTLTCAISAQPPPQVHWIKDGAPLPLAPSPVLLLPEVGHEDEGTYSCVATHPSHGPQESPPVSIRVTETGDEGPAEGSVGESGLGTLALA
modifications: left off: a dimerising Fc or GST
As to B1, in assay [1], the “inhibition of HMG1-induced IL-1β gene expression” value is given as “robustly inhibited” and the “inhibition of HMG1-induced TNF-a gene expression” value is listed as “robustly inhibited”.

B2: rHMG1: E. coli produced recombinant HMG1 (CBP fusion protein) (protein)
chain: MGKGDPKKPRGKMSSYAFFVQTCREEHKKKHPDASVNFSEFSKKCSERWKTMSAKEKGKFEDMAKADKARYEREMKTYIPPKGETKKKFKDPNAPKRPPSAFFLFCSEYRPKIKGEHPGLSIGDVAKKLGEMWNNTAADDKQPYEKKAAKLKEKYEKDIAAYRAKGKPDAAKKGVVKAEKSKKKKEEEEDEEDEEDEEEEEDEEDEDEEEDDDDE
modifications: left off: small tags and cut ends
In the case of B2, the “induction of TNF-a mRNA levels” value in the assay with mouse macrophages (2 hours) is given as approximately 43 fold. For the same molecule, the “increase in TNF-a protein levels” value in the assay on mouse macrophages (24 hours, supernatant) is on record as approximately 10 fold.

B3: A-box: synthesized HMGB1 A-box peptide (SEQ ID NO: 108), a known HMGB1 antagonist (peptide, listed as Homo sapiens)
chain: PRGKMSSYAFFVQTCREEHKKKHPDASVNFSEFSKKCSERWKTMSAKEKGKFEDMAKADKARYEREMKTYIPPKGET
Take B3: the figures for the “inhibition of IFN-a release induced by CpG + thymus HMG1” value in assay [2] and in assay [2] (listed as HMGB1 A-box) were “inhibit IFN-a release” and “did not show inhibition in this assay”, respectively. Besides, the “inhibition of the interaction of CpG and HMGB1” value in assay [3] is “inhibit the interaction of CpG and HMGB1”; in assay [3] (listed as A box HMGB1), “prevented the binding of HMGB1 to CpG DNA”. In the assay with AM14 B cells, the “effect on TLR2, TLR4 ligand induced proliferation or BCR mediated B cell activation” value is “had no effect”. Besides, the “inhibition of DNA immune complex (PL2-3) dependent proliferation of AM14 B cells” value is “reduced proliferation” in the assay with AM14 B cells (listed as A box antagonist) and “markedly inhibited PL2-3-dependent proliferation of AM14 B cells” in the assay on AM14 B cells (listed as HMGB A box).

For the origin of these results see patent US20080311122A1, “Antagonists of Hmgb1 and/or Rage and Methods of Use Thereof” (Medimmune, LLC, priority 2005, published 2008).
